Publication PMC4232992

Biological target: Human myeloma IgG1 carbamylated with 0.1 M KCNO for 3 h, heat-aggregated (human)
Assay: ELISA

percent decrease in the deposition of C1q against native IgG1: 60%
Substance: C1q, the first component of the classical complement pathway (complex)
